Patent US20240033331A1, “REDUCING IMMUNOGENICITY TO PEGLOTICASE” (Horizon Therapeutics USA, Inc., priority 2019, published 2024)
Where two headings read alike, the source gives them in different places.

Tests used:
[1] = diluted in infusion bags, cited from earlier work
[2] = test system: subjects with refractory gout; conditions: doses of 4 to 12 mg; from 11.1±0.6 mg/dL before; cited from earlier work
[3] = test system: patients; conditions: bi-weekly or every 4 weeks for up to 30 months; 149 patients; cited from earlier work
[4] = KXX exposure (AUC) by patient weight and age; format: in vivo, human
Description: In some embodiments, heavier and/or younger patients may have a higher incidence of anti-KXX antibodies, or may have higher anti-KXX drug titers, than lighter and/or older patients. In other embodiments, lighter and/or older patients may have higher drug loading of KXX than heavier and/or younger patients. In some embodiments, lighter patients may have higher exposures of KXX than heavier patients. For example, in some embodiments, lighter patients may have greater than 2-fold exposure to KXX than heavier patients. In some embodiments, lower drug levels in a patient may result in anti-KXX antibodies. […] In other embodiments, older patients may have higher exposures of KXX than younger patients. For example, in some embodiments, older patients may have greater than 2-fold exposure to KXX than younger patients. […] Thus, in some embodiments, additional 8-mg doses of KXX may be beneficial for younger and/or heavier patients. In other embodiments, younger and/or heavier patients may benefit from one or more loading doses of 16 mg of KXX.

[5] = test system: patients receiving pegloticase; conditions: cited from earlier work; for patients maintaining a response to pegloticase: another study
[6] = test system: hyperuricemic patients (SUA >8 mg/dL) with symptomatic gout; conditions: cited from earlier work; for incidence of infusion-related reactions: pegloticase 8 mg
[7] = test system: patients treated with pegloticase; conditions: cited from earlier work
[8] = test system: lupus nephritis patients; conditions: in vivo; cited from earlier work
[9] = test system: rabbits; conditions: cited from earlier work
[10] = test system: rats; conditions: cited from earlier work
[11] = human, in vivo; cited from earlier work
[12] = test system: serum proteins; conditions: cited from earlier work
[13] = test system: patients treated with allopurinol; conditions: cited from earlier work

pegloticase
time stable after dilution ([1]; 2° C. to 8° C.): 4 h
time stable after dilution ([1]; room temperature (20° C. to 25° C.)): 4 h
pUAc after dosing, mean±SD [2]: 1.0±0.5 mg/dL
long-term safety [3]: No new safety signals were observed
mean area under the curve (AUC) ([4]; heavier patients): about 4.04 mg/L
exposure, lighter versus heavier patients ([4]; human, in vivo): greater than 2 fold
exposure, older versus younger patients ([4]; human, in vivo): greater than 2 fold
mean area under the curve (AUC) ([4]; lighter patients): about 8.92 mg/L
mean area AUC ([4]; older patients): about 8.86 mg/L
mean area AUC ([4]; younger patients): about 3.93 mg/L
patients with titers exceeding 1:2430 who developed IRs ([5]; 31 of 52 patients): 60%
patients maintaining a response to pegloticase ([5]; antibody titer exceeding 1:2430 at any time, 7 of 65): 10.8%
patients maintaining a response to pegloticase ([5]; never had an antibody titer above 1:2430, 58/65): 89.2%
patients who developed high titer anti-pegloticase antibodies and subsequently lost response ([5]; one study, 69 of 169 patients): 41%
patients with IRs in whom loss of response (return to SUA >6 mg/dL) preceded the first IR ([6]; 20/21 patients): 95%
incidence of infusion-related reactions ([6]; biweekly dosing): 26%
incidence of infusion-related reactions ([6]; every-4-week dosing regimen): 40%
other uncommon symptoms, share of patients ([7]; ecchymoses, sore throat, constipation, chest pain, vomiting): at least 5%
most common adverse reactions, share of treated patients ([7]; gout flares, infusion reactions, nausea, contusion or ecchymosis, nasopharyngitis, constipation, chest pain, anaphylaxis, vomiting): ≥ 5%
anaphylaxis, frequency ([7]; human, in vivo): 6.5%
infusion reactions, share of patients ([7]; pegloticase 8 mg every 2 weeks): 26%

rituximab: biologic given with MMF and glucocorticoids in a lupus nephritis trial
rate of serious infections [8]: 16.6 /100 patient-years

COc1c(C)c2c(c(O)c1C/C=C(\C)CCC(=O)OCCN1CCOCC1)C(=O)OC2 [MMF, 2-morpholinoethyl (E)-6-(1,3-dihydro4-hydroxy-6-methoxy-7-methyl-3-oxo-5-isobenzofuranyl)-4-methyl-4-hexenoate]
teratogenicity [9]: teratogenic effects
teratogenicity [10]: teratogenic effects
time after which not detectable in urine [11]: 8 h
bound to serum proteins [12]: 30%

Sc1ncnc2nc[nH]c12 [mercaptopurine, 6-mercaptopurine]
time after which not detectable in urine [11]: 8 h
bound to serum proteins [12]: 30%

Oc1ncnc2[nH]ncc12 [allopurinol]
patients developing allergic reactions [13]: Approximately 2%
severe hypersensitivity syndrome [13]: about 0.4%
